The record followed here is publication PMC11770335, “Transcriptome-scale analysis uncovers conserved residues in the hydrophobic core of the bacterial RNA chaperone Hfq required for small regulatory RNA stability”.

What all share (conditions): protein: recombinant; chain copies: 6; single strand
The target in data set [1] is T1, Hfq V22A (Escherichia coli, UniProt P0A6X3 1-102, V22A). Nature of the data set: ITC; no Mg2+ listed; N 1.43 RNA/hexamer; ITC: 20 mM Tris-HCl pH 7.5, 100 mM NaCl, 20 mM KCl, 30°C; plus 5 mM MgCl2 for U6; Hfq hexamer 10-18 µM in cell.
For data set [2], the target named is T2, Hfq WT (Escherichia coli, UniProt P0A6X3 1-102). Nature of the data set: ITC; no Mg2+ listed; N 1.31 RNA/hexamer; ITC: 20 mM Tris-HCl pH 7.5, 100 mM NaCl, 20 mM KCl, 30°C; plus 5 mM MgCl2 for U6; Hfq hexamer 10-18 µM in cell.
Data set [3] addresses T3, Hfq G34A (Escherichia coli, UniProt P0A6X3 1-102, G34A). Nature of the data set: ITC; no Mg2+ listed; N 0.75 RNA/hexamer; ITC: 20 mM Tris-HCl pH 7.5, 100 mM NaCl, 20 mM KCl, 30°C; plus 5 mM MgCl2 for U6; Hfq hexamer 10-18 µM in cell.
The target of data set [4] is T1, Hfq V22A. Nature of the data set: X-ray crystallography; one pA4 traced at distal face (Methods says proximal); 0.2 M LiSO4, 0.05 M zinc acetate, Bis-Tris pH 7.5; ITC: 20 mM Tris-HCl pH 7.5, 100 mM NaCl, 20 mM KCl, 30°C; plus 5 mM MgCl2 for U6; Hfq hexamer 10-18 µM in cell.
Data set [5] deals with T1, Hfq V22A. Nature of the data set: ITC; 5 mM MgCl2; N 1.02 RNA/hexamer; second weaker event offset; ITC: 20 mM Tris-HCl pH 7.5, 100 mM NaCl, 20 mM KCl, 30°C; plus 5 mM MgCl2 for U6; Hfq hexamer 10-18 µM in cell.
The target in data set [6] is T2, Hfq WT. Nature of the data set: ITC; 5 mM MgCl2; N 0.96 RNA/hexamer; second weaker event offset; ITC: 20 mM Tris-HCl pH 7.5, 100 mM NaCl, 20 mM KCl, 30°C; plus 5 mM MgCl2 for U6; Hfq hexamer 10-18 µM in cell. A general note: Isothermal titration calorimetry measures the heat released or taken up as one component is titrated into another.
The target of data set [7] is T3, Hfq G34A. Nature of the data set: ITC; 5 mM MgCl2; N 0.83 RNA/hexamer; second weaker event offset; ITC: 20 mM Tris-HCl pH 7.5, 100 mM NaCl, 20 mM KCl, 30°C; plus 5 mM MgCl2 for U6; Hfq hexamer 10-18 µM in cell.

B1: A17 (ssRNA)
RNA: AAAAAAAAAAAAAAAAA
Consider B1, for which the results for the Kd with Hfq V22A [1], with Hfq WT [2] and in the data set with Hfq G34A [3] were 10.5 ± 3.4 nM, 51.5 ± 18 nM and 26.3 ± 13.2 nM, respectively.

B2: pA4 (ssRNA)
RNA: AAAA
Take B2: in the data set with Hfq V22A [4], the binding result is “binds”.

B3: U6 (ssRNA)
RNA: UUUUUU
As to B3, the Kd in the data set with Hfq V22A [5] worked out at 56.6 ± 7.5 nM; with Hfq WT [6], 42.2 ± 12.8 nM; in the data set with Hfq G34A [7] it was 19.3 ± 8.3 nM.

For orientation: Kd means the concentration at which binding is half-saturated.
